Experimental data as given in US20150166668A1 (PROMIS NEUROSCIENCES, published 2015).

Legend:
[1] = molecular target: PrP on the surface of normal cells (human) (UniProt P04156); test: flow cytometry on HOEpiC Donor 1 normal ovarian epithelium
[2] = molecular target: PrP on the surface of normal cells (human) (UniProt P04156); test: flow cytometry on HOEpiC Donor 2 normal ovarian epithelium
[3] = molecular target: PrP on the surface of normal cells (human) (UniProt P04156)
[4] = molecular target: PrP on the surface of normal cells (human) (UniProt P04156); test: flow cytometry on HOEpiC Donor 3 normal ovarian epithelium
BSA-DSE3 peptide = molecular target: T1, BSA-DSE3 peptide (human); test: ELISA, plate coated with BSA-peptide
T1 construct: also called immunogen peptides; specific peptide

Anti-PrP 6H4 antibody
Ave S/N [1]: 8.31 | Ave S/N [2]: 14.2 | EC50 [3]: 17 nM | Ave S/N [4]: 15.1

B1: DSE3 ab120 (antibody, V domains shown)
VH: QSVEESGGHLVTPGTPLTLTCTVSGIDLSTYAMGWVRQAPGKGLEWIGVITKSGNTYYASWAKGRFAISKTSTTVDLKITSPTTEDTATYFCGRYGIGVSYYDIWGPGTLVTVSS
VL: AQVLTQTPSPVSAAVGGTVTINCQSSQSLYNKNWLSWYQKKPGQPPKLLIYKASTLESGVSSRFKGSGSGTQFTLTISGVQCDDAATYYCQGEFSCSSADCTAFGGGTEVVVKG
EC50 (BSA-DSE3 peptide): 0.0655 nM
